Where no end group is shown, it is not given here.

Test [1] has as its target T1, CD13/aminopeptidase N on CD13-transfected cells (Molt-4/CD13, MDA-MB-435/CD13) (Homo sapiens (Human), UniProt P15144 2-967).
T1 construct: The parental lines express no endogenous CD13; The transfected construct is not described; also called CD13/APN
Put plainly: competition with CNGRC phage on CD13-transfected cells; peptide at 250 and 500 ug/ml. Here is the method: The CNGRC phage binds specifically to cells transfected with CD13. […] Briefly, mock transfected Molt-4 cells (“Molt-4/mock”) and cells transfected with CD13 (“Molt-4/CD13”) were incubated with CNGRC (SEQ ID NO:8) phage or with control Fd phage lacking an insert (2× 10^9 transducing units (TU) per sample). […] After extensive washing, bound phage were quantitated by infection of bacteria as described above.

Test [2] addresses T2, CD13/aminopeptidase N (CD13/APN), isolated from octylglucoside cell extracts (Homo sapiens (Human), UniProt P15144 2-967).
T2 construct: The source cell lines are human; also called NGR receptor; immuno-isolated CD13
Description: affinity chromatography of Molt-4/CD13, MDA-MB-435/CD13 or HL-60 cell extracts on CNGRC-SEPHAROSE
As to the method: (§1) To further characterize the interaction of CD13/APN with the NGR peptide, affinity chromatography on the CNGRC peptide was performed. The column was prepared by coupling the CNGRC peptide to SEPHAROSE (Pharmacia; Piscataway N.J.). Elution was effected with soluble CNGRC peptide. Experiments were performed using HL-60 cell extracts because they are known to express CD13/APN without other proteases that could interfere in the APN assay (Xu et al., supra (1997)). Thus, in HL-60 cell extracts, all detectable cell surface enzymatic activity is inhibitable by anti-CD13 blocking antibodies, assuring specificity. Extracts of Molt-4 and MDA-MB-435 cells transfected with CD13/APN were also characterized by using affinity chromatography, with extracts of the mock transfected counterparts used as negative controls.
(§2) Briefly, CD13 was detected by testing aliquots of each fraction for the presence of CD13 immunoreactivity in ELISA with the anti-CD13 monoclonal antibody WM15, using normal mouse IgG as a negative control. The fractions were also analyzed for CD13 enzymatic activity using AlapNA as the substrate. […] Furthermore, no CD13 activity was recovered from the CNGRC column when the extract fractionated was derived from CD13-negative cells (see FIG. 6).

Test [3] has as its target T2, CD13/aminopeptidase N (CD13/APN), …. Put plainly: peptide affinity chromatography of cell extracts. Here is the method:
as §1, §2

T2 sequence (P15144 2-967 R86Q limits assumed): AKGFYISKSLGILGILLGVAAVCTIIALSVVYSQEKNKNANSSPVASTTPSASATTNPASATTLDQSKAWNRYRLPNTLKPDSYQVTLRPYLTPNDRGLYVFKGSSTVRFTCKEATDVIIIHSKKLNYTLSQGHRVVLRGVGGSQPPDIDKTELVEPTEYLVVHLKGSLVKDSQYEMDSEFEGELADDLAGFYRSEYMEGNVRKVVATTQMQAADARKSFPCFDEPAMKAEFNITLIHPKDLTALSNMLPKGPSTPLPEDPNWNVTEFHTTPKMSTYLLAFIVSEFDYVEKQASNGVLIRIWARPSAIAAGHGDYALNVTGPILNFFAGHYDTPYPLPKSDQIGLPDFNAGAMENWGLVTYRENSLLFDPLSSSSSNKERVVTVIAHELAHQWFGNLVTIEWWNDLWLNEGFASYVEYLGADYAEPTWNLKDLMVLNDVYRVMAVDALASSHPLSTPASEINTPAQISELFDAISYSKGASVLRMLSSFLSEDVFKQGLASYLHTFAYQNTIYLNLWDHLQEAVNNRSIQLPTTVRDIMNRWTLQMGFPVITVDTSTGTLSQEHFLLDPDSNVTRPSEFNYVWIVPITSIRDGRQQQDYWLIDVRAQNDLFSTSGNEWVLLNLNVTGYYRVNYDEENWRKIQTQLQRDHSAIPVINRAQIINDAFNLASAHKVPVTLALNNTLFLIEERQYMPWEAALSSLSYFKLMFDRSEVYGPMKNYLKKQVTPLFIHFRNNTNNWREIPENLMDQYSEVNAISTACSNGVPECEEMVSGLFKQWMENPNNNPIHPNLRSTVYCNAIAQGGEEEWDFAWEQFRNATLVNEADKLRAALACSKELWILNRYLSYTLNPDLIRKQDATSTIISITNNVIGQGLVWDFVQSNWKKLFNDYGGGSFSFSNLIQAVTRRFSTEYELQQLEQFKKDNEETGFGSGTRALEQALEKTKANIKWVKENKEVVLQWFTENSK
T1 sequence (P15144 2-967 R86Q limits assumed): as above

B1: CNGRC cyclic peptide (SEQ ID NO:8) (peptide)
peptide: CNGRC
modifications: also: cyclized (cyclic peptide), ring type not given here
notes: also called NGR cyclic peptide; soluble CNGRC peptide
For B1, the binding result in test [1] and in test [2] was “binds” throughout.

B2: CARAC peptide (SEQ ID NO:221) (peptide)
peptide: CARAC
notes: also called negative control CARAC; control peptide
As for B2, the binding result in test [3] is reported as “no binding”.
